B1: RHOBTB3 (parent)
chain: GGADIIVIKYNVNDKFSFHEVKDN

Variants of: B1
Test: protein stability index of a GFP-peptide fusion (GPS, HEK-293T) (PSI 1-6); higher = more stable
Conditions: c terminus: a fixed tail appended
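Note: lentivirally expressed fusions sorted by FACS into six bins by GFP to DsRed ratio, PSI derived from sequencing read proportions per bin multiplied by bin number.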

| Variant | protein stability index |
| --- | --- |
| GGADIIVIKYNVNDLFSFHEVKDN [K15L] | 3.48 |
| GGADIIVIKYNVNDHFSFHEVKDN [K15H] | 2.87 |
| GGADIIVGKYNVNDKFSFHEVKDN [I8G] | 2.92 |
| GGADIIVEKYNVNDKFSFHEVKDN [I8E] | 4.25 |
| GGADIIVVKYNVNDKFSFHEVKDN [I8V] | 1.81 |
| GGADIIVWKYNVNDKFSFHEVKDN [I8W] | 2.04 |
| NGADIIVIKYNVNDKFSFHEVKDN [G1N] | 2.96 |
| VGADIIVIKYNVNDKFSFHEVKDN [G1V] | 2.1 |
| IGADIIVIKYNVNDKFSFHEVKDN [G1I] | 2.53 |
| GGADIIVIKYNPNDKFSFHEVKDN [V12P] | 2.13 |
| GGADIIVIKYNTNDKFSFHEVKDN [V12T] | 2.73 |
| GGADIIVIKYNWNDKFSFHEVKDN [V12W] | 3.56 |
| GGADIIVIKYNQNDKFSFHEVKDN [V12Q] | 2.3 |
| GGADIIVIKYNGNDKFSFHEVKDN [V12G] | 2.7 |
| GGADIIVIKYNANDKFSFHEVKDN [V12A] | 2.83 |
| GGADIIVIKYNVNDKFSEHEVKDN [F18E] | 1.76 |
| GGADIIVIKYNVNDKFSKHEVKDN [F18K] | 1.78 |
| GGADIIVIKYNVNDKFSHHEVKDN [F18H] | 1.76 |
| GGADIIVIKYNVNDKFSDHEVKDN [F18D] | 2.26 |
| GGADIIVIKYNVNDKFSFHEVADN [K22A] | 2.89 |
| GGADIIVIKYNVNDKFSFHEVYDN [K22Y] | 3.11 |
| GGADIIVIKYNVNDKFSFHEVFDN [K22F] | 4.16 |
| GGADIIVIKYNVPDKFSFHEVKDN [N13P] | 3.19 |
| GGADIIVIKYNVVDKFSFHEVKDN [N13V] | 3.83 |

| Variant | protein stability index |
| --- | --- |
| GGADIIIIKYNVNDKFSFHEVKDN [V7I] | 2.46 |
| GGADIIWIKYNVNDKFSFHEVKDN [V7W] | 1.52 |
| GGADIIFIKYNVNDKFSFHEVKDN [V7F] | 3.21 |
| GGADMIVIKYNVNDKFSFHEVKDN [I5M] | 2.68 |
| GGADGIVIKYNVNDKFSFHEVKDN [I5G] | 2.82 |
| GGADLIVIKYNVNDKFSFHEVKDN [I5L] | 3.18 |
| GGTDIIVIKYNVNDKFSFHEVKDN [A3T] | 2.21 |
| GGPDIIVIKYNVNDKFSFHEVKDN [A3P] | 2.35 |
| GGWDIIVIKYNVNDKFSFHEVKDN [A3W] | 2.05 |
| GGDDIIVIKYNVNDKFSFHEVKDN [A3D] | 2.85 |
| GGADIIVIKYNVNDKFSFHRVKDN [E20R] | 2.93 |
| GGADIIVIKYNVNDKFSFHYVKDN [E20Y] | 2.26 |
| GGADIIVIKYNVNDKFSFHWVKDN [E20W] | 2.67 |
| GGADIIVIKYNVNDKFSFHVVKDN [E20V] | 2.1 |
| GGADIIVIKYNVNDKFSFHNVKDN [E20N] | 3.38 |
| GGADIIVIKYNVNDKFSFHCVKDN [E20C] | 3.82 |
| GGADIIVIKYNVNDKFSFHGVKDN [E20G] | 2.78 |
| GGADIIVIKYNVNDKFSFHMVKDN [E20M] | 2.91 |
| GGAVIIVIKYNVNDKFSFHEVKDN [D4V] | 3.66 |
| GGASIIVIKYNVNDKFSFHEVKDN [D4S] | 2.66 |
| GGAHIIVIKYNVNDKFSFHEVKDN [D4H] | 2.21 |
| GGARIIVIKYNVNDKFSFHEVKDN [D4R] | 4.21 |
| GGADIIVIKYNVNDKFSFHEVKEN [D23E] | 2.68 |
| GGADIIVIKYNVNDKFSFHEVKTN [D23T] | 4.21 |

| Variant | protein stability index |
| --- | --- |
| GGADIIVIKYNVNDKFSFHEVKVN [D23V] | 2.83 |
| GGADIIVIKYNVNDKFSFHEVKLN [D23L] | 3.42 |
| GGADIIVIKYNVNDKFSFHEVKCN [D23C] | 2.08 |
| GGADIIVIKYNVNDKFSFHEVKQN [D23Q] | 2.76 |
| GGADIIVIKHNVNDKFSFHEVKDN [Y10H] | 1.92 |
| GGADIIVIKSNVNDKFSFHEVKDN [Y10S] | 1.88 |
| GGADIIVIKRNVNDKFSFHEVKDN [Y10R] | 2.53 |
| GGADIIVIKWNVNDKFSFHEVKDN [Y10W] | 3.26 |
| GGADIIVIKNNVNDKFSFHEVKDN [Y10N] | 2.03 |
| GGADIIVIKYNVNDKLSFHEVKDN [F16L] | 1.63 |
| GGADIIVIKYNVNDKQSFHEVKDN [F16Q] | 1.85 |
| GGADIIVIKYNVNDKISFHEVKDN [F16I] | 2.88 |
| GGADIIVIKYNVNDKFSFYEVKDN [H19Y] | 3.29 |
| GGADIIVIKYNVNDKFSFGEVKDN [H19G] | 2.55 |
| GGADIIVIKYNVNDKFSFPEVKDN [H19P] | 2.55 |
| GGADIIVIKYNVNDKFSFKEVKDN [H19K] | 2.44 |
| GGADIIVIKYNVNDKFSFTEVKDN [H19T] | 2.52 |
| GGADIIVIKYNVNDKFSFSEVKDN [H19S] | 2.72 |
| GGADIIVIKYNVNDKFSFREVKDN [H19R] | 2.82 |
| GCADIIVIKYNVNDKFSFHEVKDN [G2C] | 1.97 |
| GPADIIVIKYNVNDKFSFHEVKDN [G2P] | 1.52 |
| GFADIIVIKYNVNDKFSFHEVKDN [G2F] | 3.68 |
| GVADIIVIKYNVNDKFSFHEVKDN [G2V] | 1.64 |
| GYADIIVIKYNVNDKFSFHEVKDN [G2Y] | 2.69 |

| Variant | protein stability index |
| --- | --- |
| GGADIIVIKYNVNDKFSFHEVKDV [N24V] | 3.86 |
| GGADIKVIKYNVNDKFSFHEVKDN [I6K] | 3 |
| GGADILVIKYNVNDKFSFHEVKDN [I6L] | 3.33 |
| GGADIEVIKYNVNDKFSFHEVKDN [I6E] | 3.74 |
| GGADIIVIKYNVNDKFSFHEHKDN [V21H] | 2.15 |
| GGADIIVIKYNVNDKFSFHEWKDN [V21W] | 2.15 |
| GGADIIVIKYNVNDKFSFHECKDN [V21C] | 1.96 |
| GGADIIVIKYNVNDKFSFHEQKDN [V21Q] | 2.29 |
| GGADIIVIKYNVNDKFSFHESKDN [V21S] | 2.5 |
| GGADIIVIKYNVNDKFSFHEDKDN [V21D] | 1.3 |
| GGADIIVIKYNVNDKFSFHEGKDN [V21G] | 3.4 |
| GGADIIVITYNVNDKFSFHEVKDN [K9T] | 2.97 |
| GGADIIVIKYNVNVKFSFHEVKDN [D14V] | 4.54 |
| GGADIIVIKYNVNMKFSFHEVKDN [D14M] | 1.62 |
| GGADIIVIKYNVNRKFSFHEVKDN [D14R] | 2.36 |
| GGADIIVIKYNVNGKFSFHEVKDN [D14G] | 1.72 |
| GGADIIVIKYNVNDKFTFHEVKDN [S17T] | 2.25 |
| GGADIIVIKYNVNDKFYFHEVKDN [S17Y] | 1.63 |
| GGADIIVIKYNVNDKFHFHEVKDN [S17H] | 2.69 |
| GGADIIVIKYNVNDKFQFHEVKDN [S17Q] | 2.36 |
| GGADIIVIKYNVNDKFEFHEVKDN [S17E] | 2.94 |
| GGADIIVIKYNVNDKFPFHEVKDN [S17P] | 2.54 |

Source: the supplement of paper PMC10567573
